Each block holds one binder with its values, some of them ahead of it.
Key:
[1] = target: p185, the human HER-2/neu (c-erbB2) proto-oncogene product (human) (UniProt P04626); experiment: Scatchard analysis on SK-Br-3 cells
[2] = target: H520C9sFv-hIL-2 fusion protein (human) (UniProt P60568); experiment: cell-based or functional assay
[3] = target: recombinant human IL-2 (human) (UniProt P60568); experiment: cell-based or functional assay

Ka [1]: 3.5e+08 M⁻¹
B1: murine monoclonal antibody 520C9 (antibody, from another filing, V domains shown)
VH: EIQLVQSGPELKKPGETVKISCKASGYTFANYGMNWMKQAPGKGLKWMGWINTYTGQSTYADDFKERFAFSLETSATTAHLQINNLRNEDSATYFCARRFGFAYWGQGTLVSVSA
VL: DIQMTQSPSSLSASLGERVSLTCRASQDIGNSLTWLQQEPDGTIKRLIYATSSLDSGVPKRFSGSRSGSDYSLTISSLESEDFVVYYCLQYAIFPYTFGGGTNLEIK

Ka [1]: 6.7e+07 M⁻¹
B2: proteolytically cleaved Fab fragment of 520C9 (Fab, from another filing, V domains shown)
VH: B1 VH
VL: B1 VL

50% inhibition of [^3H]-thymidine incorporation in CTLL-2 cells (Neutralization Dose 50) for the same dose of H520C9sFv-hIL-2 [2]: 0.128 µg/mL
50% inhibition of [^3H]-thymidine incorporation in CTLL-2 cells (Neutralization Dose 50) for 2 ng/ml rhIL-2 [3]: 0.076 µg/mL
B3: mouse anti-human IL-2 mAb MAB202 (antibody, from another filing, V domains shown)
VH: DVRLVESGGGLVKPGGSLKLSCAAYGFTFSSYTLAWVRQTPEKRLEWVAAIDSSSYTYSPDTVRGRFTISRDNAKNTLYLQMSSLKSEDTAMYYCTRDSNWDALDYWGQGTSVIVSS
VL: DIVMTQSQKFMSTSVGDRVSVTCKASQNVGTNVGWYQQKPGQSPKALIYSASFRYSGVPDRFTGSGSGTDFSLTISNVKSEDLAEYFCQQYYTYPYTFGGGTKLEIK

— patent publication US20020041865A1
